The source of these data is patent publication US20070141048A1 (SYMPHOGEN A S, published 2007).

B1: g060f11 (Fab, V domains shown)
VH: EVQLVQSGGGVVRPGGSLRLSCAGSGFTFDEYAMSWVRQAPGKGLEWVAFINWNGDSTYYADSVKGRFTVSRTNAKNSLYLQMNSLRAEDTAFYYCARDPRTKLGMSYFDYWGQGTLVTVS
VL: EIVMTQSPSSLSASVGDRVTITCRASQTISNHLNWYQQKPGRAPKLLIYVGSSLQSGVPSRFSGSGSGTDFTLTISGLQPEDFATYYCQQSYSPSYTFGQGTKVEIK
B2: g060g12 (Fab, V domains shown)
VH: EVQLVQSGGGVVRPGGSLRLSCAGSGFTFDEYAMSWVRQAPGKGLKWVAFINWNGDSTYYADSVKGRFTVSRSNAKNSLYLQMNSLRAEDTAFYCCARDPRTKLGMSYFDYWGQGTLVTVS
VL: DIQMTQSPSSLSASVGDRVTITCRASQTISNHLNWYQQKPGRAPKLLIYVGSSLRSGVPSRFSGSGSGTDFTLTISGLQPEDFATYYCQQSYSPSYTFGQGTKVEIK
B3: g060b09 (Fab, V domains shown)
VH: QVQLQESGPTLVKPTQTLTLTCSFSGFSLGTTGVNVGWIRQPPGKALEWLALISWDGGKHYSPSLNSRITLTKDASREQVVVPTMTNMDPADTGRYYCARIVGTHGFDYWGQGTLVTVS
VL: EIVLTQSPSFLSASVGDRVTITCRASQGIGNFLAWYQQKPGKAPKLLISGASTLQSWVPSRFSGRGSGTEFTLTISSLQPEDFATYYCQQLNRYPPYTFGQGTKLEIK
B4: g060f10 (Fab, V domains shown)
VH: QVTLKESGPTLVKPTQTLTLTCTFSGFSLGTTGVNVGWIRQPPGKALEWLALISWGGGKHYSPSLNSRITLTKDASREQVVVLTMANMDPVDTGRYYCARIVGTHGFDYWGQGTLVTVS
VL: EIVMTQSPSFLSASVGDRVTITCRASQGIGNFLAWYQQKPGKAPKLLISGASTLQSWVPSRFSGRGSGTEFTLTISSLQPEDFATYYCQQLNRYPPYTFGQGTKLEIK
B5: g060a11 (Fab, V domains shown)
VH: KVQLVESGGGLVKPGGSLRLSCVVSGFPLNRYTMNWVRQAPGKGLEWLSSISSTSSYIYYADSVKGRFTISRDNAKNSLFLQMNSLRADDTALYFCASGNTHDYWGQGTLVTVS
VL: DVVMTQSPSSLSASVGDRVTITCRASQSININLNWFQQKPGKAPNLLIYSASTLQTGVPSRFSGSGSGTEFTLTISSLQPEDFATYYCQQIYSHVRTFGQGTKVEIK
B6: g060c12 (Fab, V domains shown)
VH: KVQLVQSGGGLVKPGGSLRLSCVVSGFPLNRYIMNWVRQTPGKGLEWLSSISSTSSYIYYADSAKGRFTISRDNAKNSLFLQMNSLRAEDTGLYYCASGNTHDYWGQGTLVTVS
VL: EIVLTQSPSSLSASVGDRVTTTCRTSQSIFINLNWFQQKPGKAPKLLIYSASTLQTGVPSRFSGSGSGTEFTLTISSLQPEDFATYYCQQIYSQVRTFGQGTKVEIK
B7: g060g03 (Fab, V domains shown)
VH: EVQLVQSGPEVKKPGASVRVSCKASGYSLKNYGIHWVRQAPGQGLEWMGWISADNGDTTTALNLRGRVSMTTDTSTNTVYMEVKSLRSDDTAIYFCARDFYSGSYRSFDYWGQGTLVTVS
VL: DVVMTQSPSSLSASLGDRVTITCRASQHISNYLNWYQQKPGKAPKLLIYAASSLQSGVPSRFTGSGSGADYTLTISSLQPEDFATYYCQQSYSTSWTFGQGTTVGIK
B8: g060a01 (Fab, V domains shown)
VH: QVQLVQSGPEVKKPGASVRVSCKASGYSFKNYGIHWVRQAPGQGLEWMGWISADNGDTTTALNLRGRVSMTTDTSTNTVYMEVKSLRSDDTAIYFCARDFYSGSYRSFDCWGQGTLVTVS
VL: EIVLTQSPSSLSASLGDRVTITCRASQHISNYLNWYQQKPGKAPKLLICAASSLQSGVPSRFTGSGSGADYTLTISSLQPEDFATYYCQQSYSTSWTFGQGTTVEIK
B9: g060f03 (Fab, V domains shown)
VH: QVQLVQSGGGLVKPGGSLRLSCAASGFTFSNAWMSWVRQAPGKGLEWVGHVKSMTDGGTTDYAAPVKGRFTISRDDSENTLYLQMNSLKTDDTAVYYCTTHDYWGQGTLVTVS
VL: EIVMTQSPPFLSASVGDRVTITCRASQGLSTYLAWYQVKPGKAPKLLIYAASTLQSGVPSRFSGSGSGTEFTLTINSLQPEDFATYYCQQLDTYPLTLGGGTKVEIK
B10: g060a10 (Fab, V domains shown)
VH: QITLKESGPTLVKPTQTLTLTCTLSGFSLYTTGVGVGWIRQPPGKALEWLARIYWDDDERYNPSLKSRLTITKDASKNQVVLKMTNMDPVDTATYYCARTMGVVLPFDYWGQGTLVTVS
VL: EIVLTQSPSTLSASVGDRVTITCRASQSIGSWLAWYQQKPGKAPKLLIYKASTLQSETPSRFRGSGSGTEFTLTISSLQPDDFATYYCQQFNSFSPWTFGQGTKVEFK
B11: g060f01 (Fab, V domains shown)
VH: QVQLQQSGGGVVQPGRSLRLSCAASGFAFRDYAMHWVRQAPGKGLEWMGVISFNGDQIFYADSMKGRFTISRENSKNTLHLRMNSLRPEDTAVYYCARARLLFCSGGRCDMDSWGQGTLVTVS
VL: EIVMTQSPSFLSASVGDRVTITCRASQDIITYLAWYQQKPGKAPEVLIFGASTLQSGVPSRFSGSGSGTEFTLTISSLQPEDFATYYCQQIIRYPRTFGQGTRVEIK
B12: g060a02 (Fab, V domains shown)
VH: QVQLQQSGGGLVKPGGSLRLSCAASGFTFSSYSMNWVRQAPGKGLEWVSSISSSSSYIYYADSVKGRFTISRDNAKNSLYLQMNSLRAEDTAVYYCARRPGWAATRAAGAFDIWGQGTMVTVS
VL: EIVLTQSPSSLSASVGDRVTITCRASQGISNYLAWYQQKPGKVPKLLIYAASTLQSGVPSRFSGSGSGTDFTLTISSLQPEDVATYYCQKYNSAPYTFGQGTKLEIK
B13: g060g04 (Fab, V domains shown)
VH: EVQLVQSGPGLVKPSETLSLTCAVSGASVSGGDYYWSWIRQPPGKALEWIGYIYYIGSTNYNPSLKSRLSLSVDTAKSQFSLKLSSVTAADTAIYFCARARRTYSGYDSAFDYWGQGTLVTVS
VL: DVVMTQSPSSLSASVGDRVSITCRASRSVKTYLNWYQQKPGKAPKLLVYGSSSLESGVPSRFSGSGSGTDFTLTISSLQPEDFATYYCQQSFGTPYTFGQGTKLDTK
B14: g060h04 (Fab, V domains shown)
VH: EVQLVQSGPGLVKPSETLSLTCAVSGASVSGGDYYWSWIRQPPGKALEWIGYIYYIGSTNYNPSLKSRLSLSVDTAKSQFSLKLSSVTAADTATYFCARARRTYSGYDSAFDYWGQGTLVTVS
VL: DVVMTQSPSSLSASVGDRVSITCRASRSVKTYLNWYQQKPGKAPKLLVYGSSSLESGVPSRFSGSGSGTDFTLTISSLQPEDFATYCCQQSFGTPYTFGQGTKLDIK

The target in the test is T1, Ovalbumin (UniProt P01012 2-386).
T1 sequence: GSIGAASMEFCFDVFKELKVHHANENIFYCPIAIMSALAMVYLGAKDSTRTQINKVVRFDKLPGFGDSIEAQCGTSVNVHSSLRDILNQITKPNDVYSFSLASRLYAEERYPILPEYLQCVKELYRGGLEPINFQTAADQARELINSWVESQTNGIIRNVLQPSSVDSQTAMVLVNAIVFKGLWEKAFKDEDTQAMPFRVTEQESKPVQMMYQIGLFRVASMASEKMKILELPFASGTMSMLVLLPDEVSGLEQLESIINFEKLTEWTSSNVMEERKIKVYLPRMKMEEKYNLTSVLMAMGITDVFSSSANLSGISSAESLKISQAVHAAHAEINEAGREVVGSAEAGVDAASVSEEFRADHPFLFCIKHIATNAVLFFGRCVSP
The test can be described thus: ELISA, periplasmic extract on coated Ovalbumin.
With B1, the binding result is given as “no binding (tested: 10 µg/ml Ovalbumin coat)”.

Regarding B2, the binding result was “no binding (tested: 10 µg/ml Ovalbumin coat)”. As to B3, the binding result is “no binding (tested: 10 µg/ml Ovalbumin coat)”. As for B4, the entry is “no binding (tested: 10 µg/ml Ovalbumin coat)”; as for B5, “no binding (tested: 10 µg/ml Ovalbumin coat)”; as for B6, “no binding (tested: 10 µg/ml Ovalbumin coat)”. The entry for B7 is “no binding (tested: 10 µg/ml Ovalbumin coat)”; for B8 it is “no binding (tested: 10 µg/ml Ovalbumin coat)”. Regarding B9, the binding result is “no binding (tested: 10 µg/ml Ovalbumin coat)”. As for B10, the entry is “no binding (tested: 10 µg/ml Ovalbumin coat)”; as for B11, “no binding (tested: 10 µg/ml Ovalbumin coat)”.

Regarding B12, the binding result was “no binding (tested: 10 µg/ml Ovalbumin coat)”. The entry for B13 is “no binding (tested: 10 µg/ml Ovalbumin coat)”. As for B14, the entry is “no binding (tested: 10 µg/ml Ovalbumin coat)”.
